# From the RNAGym collection of RNA variant scans (doi:10.1093/nar/gkz1192)
# B1: CPEB3 Ribozyme (parent)
# chain: UAACAGGGGGCCACAGCAGAAGCGUUCACGUCGCAGCCCCUGUCAGAUUCUGGUGAAUCUGCGAAUUCUGCUGUAUAUCUC
# Variants of: B1
# Test: self-cleavage, relative activity (ratio to wild type); higher = more cleavage; in vitro, sequencing
# In short: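 Barcoded CPEB3 ribozyme mutants, produced by rounds of error-prone PCR, self-cleaved while being transcribed with T7 RNA polymerase for 5 hours at 37°C and during a subsequent 15 min DNase I step before EDTA was added. Sequencing of template-switched cDNA on Illumina gave cleaved and total reads, and DNA sequencing assigned barcodes to variants. Each variant's relative activity is its cleaved/total read fraction divided by the unmutated ribozyme's fraction, averaged across three batches. A variant needed a minimum of 5 reads.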
row,Variant,self-cleavage
1,U72A U76C,0.97
2,U72A U76A,0.72
3,U72A U76G,0.54
4,C71G U72C,0.44
5,C68A C81A,0.6
6,U67C C79A,0.49
7,U67C C79U,0.32
8,U69C U74G,0.88
9,U69C U74C,0.74
10,U69C U74A,0.55
11,G70U U74C,0.26
12,U69C A77C,0.54
13,U69C A77G,0.67
14,U69C A77U,0.77
15,U69G A75U,0.78
16,C68G U69C,0.27
17,U67C U80C,0.4
18,U67C U80A,0.32
19,G70C A77G,0.49
20,C68G U78C,0.69
21,U67G U69C,0.5

row,Variant,self-cleavage
1,C71A,0.33
2,C71G,0.42
3,C71U,0.68
4,U69G U74G,0.97
5,U69G U74C,0.38
6,U69A,0.63
7,U69C,0.59
8,U69G,0.74
9,U67C U76C,0.3
10,U67C U76A,0.3
11,C71U U78A,0.65
12,C71U U78C,0.77
13,U67C C81G,0.16
14,U67C C81U,0.37
15,C71G U80G,0.4
16,U66C U72G,0.46
17,U66C U72C,0.45
18,U66C U72A,0.39
19,C71G A75G,0.62
20,C71U U80A,0.72
21,C71U U80C,1.23

row,Variant,self-cleavage
1,U67A U76C,0.58
2,U67A U76A,0.68
3,U67C U72C,0.29
4,U67C U72A,0.33
5,U67C U72G,0.22
6,U69C U72C,0.37
7,U69C U72G,0.35
8,U69C U72A,0.36
9,G70C U76A,0.11
10,C68G U74A,0.43
11,C68U U69C,0.43
12,C68U U69G,0.39
13,C68U U69A,0.22
14,U69G A77G,0.78
15,U69G A77U,0.27
16,U67C C71G,0.21
17,U67A G73A,1.05
18,U67A G73C,1.07
19,U66A U76C,0.57
20,U66C G73C,0.58
21,U66C G73U,1.02

row,Variant,self-cleavage
1,U66C G73A,0.81
2,U67A U69A,0.3
3,U67A U69C,0.4
4,U69G G73A,0.98
5,U66G U80C,0.54
6,U66G U80A,0.67
7,U66C A77U,0.34
8,U66C A77G,0.4
9,U67C A77G,0.3
10,U67C A77U,0.34
11,U66G A75U,0.67
12,U72A G73A,1.28
13,U72A G73C,1.25
14,U66G G70A,0.27
15,U67G A75U,0.6
16,U67G,0.4
17,U67C,0.32
18,U67A,0.54
19,C68G U72C,0.48
20,U66C U80C,0.45
